Source: US20220372167

T1: murine IGFBP-4 with C-terminal 6His tag, P47879
T1 chain: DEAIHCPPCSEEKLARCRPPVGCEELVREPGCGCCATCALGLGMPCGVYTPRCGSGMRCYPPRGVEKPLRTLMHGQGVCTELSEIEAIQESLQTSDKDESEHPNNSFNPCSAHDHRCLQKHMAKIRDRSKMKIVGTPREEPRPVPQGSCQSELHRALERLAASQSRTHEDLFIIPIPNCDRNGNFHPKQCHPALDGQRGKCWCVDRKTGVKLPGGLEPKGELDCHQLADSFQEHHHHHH

T2: murine IGFBP-5 with C-terminal 6His tag, Q07079
T2 chain: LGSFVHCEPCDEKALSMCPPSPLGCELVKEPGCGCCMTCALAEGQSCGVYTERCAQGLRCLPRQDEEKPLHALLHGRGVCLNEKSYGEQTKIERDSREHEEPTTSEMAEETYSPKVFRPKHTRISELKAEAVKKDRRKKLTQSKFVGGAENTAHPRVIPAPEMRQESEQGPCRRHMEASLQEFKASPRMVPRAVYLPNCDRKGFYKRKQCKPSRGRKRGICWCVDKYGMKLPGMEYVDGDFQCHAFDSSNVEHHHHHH

T3: murine IGFBP-2 with C-terminal 6His tag, P47877
T3 chain: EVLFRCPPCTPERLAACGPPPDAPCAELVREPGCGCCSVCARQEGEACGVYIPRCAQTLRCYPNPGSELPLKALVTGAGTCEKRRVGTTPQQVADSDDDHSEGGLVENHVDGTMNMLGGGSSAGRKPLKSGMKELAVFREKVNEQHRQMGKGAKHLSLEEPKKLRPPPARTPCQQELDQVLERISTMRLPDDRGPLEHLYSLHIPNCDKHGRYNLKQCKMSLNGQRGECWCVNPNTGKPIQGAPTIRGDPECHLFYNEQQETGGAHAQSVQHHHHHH

T4: human IGFBP-2 with N-terminal 6His tag, P18065
T4 chain: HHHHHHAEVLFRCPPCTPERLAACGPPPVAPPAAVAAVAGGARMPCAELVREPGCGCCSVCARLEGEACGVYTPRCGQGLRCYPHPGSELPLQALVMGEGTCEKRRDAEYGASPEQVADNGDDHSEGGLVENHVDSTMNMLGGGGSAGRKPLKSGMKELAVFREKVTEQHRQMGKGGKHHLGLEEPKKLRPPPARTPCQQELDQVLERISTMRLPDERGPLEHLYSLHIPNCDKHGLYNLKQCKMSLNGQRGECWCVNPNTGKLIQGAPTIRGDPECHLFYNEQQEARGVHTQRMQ

T5: human IGFBP-4 with N-terminal 6His tag, P22692
T5 chain: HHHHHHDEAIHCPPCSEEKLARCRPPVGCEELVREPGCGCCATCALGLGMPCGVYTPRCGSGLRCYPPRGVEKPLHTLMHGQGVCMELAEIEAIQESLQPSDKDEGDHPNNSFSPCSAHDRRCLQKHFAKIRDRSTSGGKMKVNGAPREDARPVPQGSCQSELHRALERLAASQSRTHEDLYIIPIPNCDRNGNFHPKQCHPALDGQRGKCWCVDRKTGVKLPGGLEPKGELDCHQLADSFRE


Columns and labels:
[1] = target: T1, murine IGFBP-4 with C-terminal 6His …
[2] = target: T2, murine IGFBP-5 with C-terminal 6His …
[3] = target: T3, murine IGFBP-2 with C-terminal 6His …
[4] = target: human IGFBP-5 with N-terminal 6His tag, P24593
[5] = target: five representative anti-PAPP-A antibodies generated from yeast display libraries
[6] = target: T4, human IGFBP-2 with N-terminal 6His tag, …
[7] = target: T5, human IGFBP-4 with N-terminal 6His tag, …

human IGFBP-5 with N-terminal 6His tag, P24593, sequence (P24593 other isoform, or with tags, fused parts or gaps): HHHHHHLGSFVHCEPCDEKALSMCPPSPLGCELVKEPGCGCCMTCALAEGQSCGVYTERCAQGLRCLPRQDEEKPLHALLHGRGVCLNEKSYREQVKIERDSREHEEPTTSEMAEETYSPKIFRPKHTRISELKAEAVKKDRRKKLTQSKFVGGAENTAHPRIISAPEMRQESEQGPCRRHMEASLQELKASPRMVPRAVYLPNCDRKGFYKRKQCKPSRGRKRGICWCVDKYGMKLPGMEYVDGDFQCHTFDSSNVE

| Protein | enzymatic cleavage of IGFBP by PAPP-A [1] | enzymatic cleavage of IGFBP by PAPP-A [2] | enzymatic cleavage of IGFBP by PAPP-A [3] | enzymatic cleavage of IGFBP by PAPP-A [4] | PAPP-A cleavage of human IGFBP4 at one antibody concentration (50 nM) [5] | enzymatic cleavage of IGFBP by PAPP-A [6] | enzymatic cleavage of IGFBP by PAPP-A [7] |
| --- | --- | --- | --- | --- | --- | --- | --- |
| murine PAPP-A protein with C-terminal C-myc and Flag tags (protein) RGAEEPSPPSRALYFSGRGEQLRLRADLELPRDAFTLQVWLRAEGGQKSPAVITGLYDKCSYTSRDRGWVMGIHTTSDQGNRDPRYFFSLKTDRARKVTTIDAHRSYLPGQWVHLAATYDGRLMKLYMNGAQVATSAEQVGGIFSPLTQKCKVLMLGGSALNHNFRGHIEHFSLWKVARTQREIVSDMETRGLHTPLPQLLLQENWDNVKRTWSPMKDGNSPQVEFSNAHGFLLDTNLEPPLCGQTLCDNTEVISSYNQLPSFRQPKVVRYRVVNIYDDHHENPTVSWQQIDFQHQQLAEAFQHYNISWELEVLNINSSSLRHRLILANCDISKIGDEKCDPECNHTLTGHDGGDCRQLRYPAFMKKQQNGVCDMDCNYERFNFDGGECCDPDITDVTKTCFDPDSPHRAYLDVNELKNILRLDGSTHLNIFFANSSEEELAGVATWPWDKEALMHLGGIVLNPSFYGIPGHTHTMIHEIGHSLGLYHIFRGISEIQSCSDPCMETEPSFETGDLCNDTNPAPKHKFCGDPGPGNDTCGFHGFFNTPYNNFMSYADDDCTDSFTPNQVSRMHCYLDLVYQSWQPSRKPAPVALAPQVVGHTMDSVMLEWFPPIDGHFFERELGSACDLCLEGRILVQYAFNASSPMPCGPSGHWSPREAEGHPDVEQPCKSSVRTWSPNSAVNPHTVPPACPEPQGCYLELEFRYPLVPESLTIWVTFVSSDWDSSGAVNDIKLLTISGKNISLGPQNVFCDIPLTIRLRDVGEEVYGIQIYTLDEHLEIDAAMLTSTVDSPLCLQCKPLQYKVLRDPPLLEDVASLLHLNRRFMDTDLKLGSVYQYRIITISGNEESEPSPAAIYTHGSGYCGDGVIQKDQGEECDDMNKVNGDGCSLFCKQEVSFNCIDEPSRCYFHDGDGMCEEFEQKTSIKDCGVYTPQGFLDQWASNASVSHQDQQCPGWVVIGQPAASQVCRTKVIDLSEGISQHAWYPCTITYPYYHLPQTTFWLQTYFSQPMVAAAVIIHLVTDGTYYGDQKQETISVQLLDTKDQSHDLGLHVLSCRNNPLIIPVVHDLSQPFYHSQAVHVSFSSPLVAISGVALRSFDNFDPVTLSSCQRGETYSPAEQSCVHFACQAADCPELAVGNASLNCSSNHHYHGAQCTVSCQTGYVLQIQRDDELIKSQVGPSITVTCTEGKWNKQVACEPVDCGIPDHHHVYAASFSCPEGTTFGRRCSFQCRHPAQLKGNNSFLTCMEDGLWSFPEALCELMCLAPPPVPNADLQTARCRENKHKVGSFCKYKCKPGYHVPGSSRKSKKRAFKTQCTQDGSWQEGTCVPVTCDPPPPKFHGLYQCTNGFQFNSECRIKCEDSDASQGRGSNIIHCRKDGTWSGSFHVCREMQGQCSAPNQLNSNLKLQCPDGYAIGSECAISCLDHNSESIILPVNLTVRDIPHWMNPTRVQRIVCTAGLQWYPHPALIHCVKGCEPFMGDNYCDAINNRAFCNYDGGDCCTSTVKTKKVTPFPMSCDLQNDCACRDPEAQEHNRKDLRGYSHG | cleavage of both human and murine IGFBP-4 and IGFBP-2 by PAPP-A | PAPP-A's ability to cleave IGFBP-5 | cleavage of both human and murine IGFBP-4 and IGFBP-2 by PAPP-A | – | – | – | – |
| human PAPP-A protein with C-terminal C-myc and Flag tags (protein) EARGATEEPSPPSRALYFSGRGEQLRVLRADLELPRDAFTLQVWLRAEGGQRSPAVITGLYDKCSYISRDRGWVVGIHTISDQDNKDPRYFFSLKTDRARQVTTINAHRSYLPGQWVYLAATYDGQFMKLYVNGAQVATSGEQVGGIFSPLTQKCKVLMLGGSALNHNYRGYIEHFSLWKVARTQREILSDMETHGAHTALPQLLLQENWDNVKHAWSPMKDGSSPKVEFSNAHGFLLDTSLEPPLCGQTLCDNTEVIASYNQLSSFRQPKVVRYRVVNLYEDDHKNPTVTREQVDFQHHQLAEAFKQYNISWELDVLEVSNSSLRRRLILANCDISKIGDENCDPECNHTLTGHDGGDCRHLRHPAFVKKQHNGVCDMDCNYERFNFDGGECCDPEITNVTQTCFDPDSPHRAYLDVNELKNILKLDGSTHLNIFFAKSSEEELAGVATWPWDKEALMHLGGIVLNPSFYGMPGHTHTMIHEIGHSLGLYHVFRGISEIQSCSDPCMETEPSFETGDLCNDTNPAPKHKSCGDPGPGNDTCGFHSFFNTPYNNFMSYADDDCTDSFTPNQVARMHCYLDLVYQGWQPSRKPAPVALAPQVLGHTTDSVTLEWFPPIDGHFFERELGSACHLCLEGRILVQYASNASSPMPCSPSGHWSPREAEGHPDVEQPCKSSVRTWSPNSAVNPHTVPPACPEPQGCYLELEFLYPLVPESLTIWVTFVSTDWDSSGAVNDIKLLAVSGKNISLGPQNVFCDVPLTIRLWDVGEEVYGIQIYTLDEHLEIDAAMLTSTADTPLCLQCKPLKYKVVRDPPLQMDVASILHLNRKFVDMDLNLGSVYQYWVITISGTEESEPSPAVTYIHGRGYCGDGIIQKDQGEQCDDMNKINGDGCSLFCRQEVSFNCIDEPSRCYFHDGDGVCEEFEQKTSIKDCGVYTPQGFLDQWASNASVSHQDQQCPGWVIIGQPAASQVCRTKVIDLSEGISQHAWYPCTISYPYSQLAQTTFWLRAYFSQPMVAAAVIVHLVTDGTYYGDQKQETISVQLLDTKDQSHDLGLHVLSCRNNPLIIPVVHDLSQPFYHSQAVRVSFSSPLVAISGVALRSFDNFDPVTLSSCQRGETYSPAEQSCVHFACEKTDCPELAVENASLNCSSSDRYHGAQCTVSCRTGYVLQIRRDDELIKSQTGPSVTVTCTEGKWNKQVACEPVDCSIPDHHQVYAASFSCPEGTTFGSQCSFQCRHPAQLKGNNSLLTCMEDGLWSFPEALCELMCLAPPPVPNADLQTARCRENKHKVGSFCKYKCKPGYHVPGSSRKSKKRAFKTQCTQDGSWQEGACVPVTCDPPPPKFHGLYQCTNGFQFNSECRIKCEDSDASQGLGSNVIHCRKDGTWNGSFHVCQEMQGQCSVPNELNSNLKLQCPDGYAIGSECATSCLDHNSESIILPMNVTVRDIPHWLNPTRVERVVCTAGLKWYPHPALIHCVKGCEPFMGDNYCDAINNRAFCNYDGGDCCTSTVKTKKVTPFPMSCDLQGDCACRDPQAQEHSRKDLRGYSHG | – | – | – | PAPP-A's ability to cleave IGFBP-5 | the five representative antibodies effectively blocking cleavage of human IGFBP4 | cleavage of both human and murine IGFBP-4 and IGFBP-2 by PAPP-A | cleavage of both human and murine IGFBP-4 and IGFBP-2 by PAPP-A |
